Results as given in patent US20040191240A1 (published 2004).

Molecular target: T1, amino-terminally FLAG-tagged human p75 (human, UniProt P08138 29-427)
T1 construct: also called FLAG-tagged p75; FLAG-p75; not shown: FLAG tag at the amino terminus
T1 sequence: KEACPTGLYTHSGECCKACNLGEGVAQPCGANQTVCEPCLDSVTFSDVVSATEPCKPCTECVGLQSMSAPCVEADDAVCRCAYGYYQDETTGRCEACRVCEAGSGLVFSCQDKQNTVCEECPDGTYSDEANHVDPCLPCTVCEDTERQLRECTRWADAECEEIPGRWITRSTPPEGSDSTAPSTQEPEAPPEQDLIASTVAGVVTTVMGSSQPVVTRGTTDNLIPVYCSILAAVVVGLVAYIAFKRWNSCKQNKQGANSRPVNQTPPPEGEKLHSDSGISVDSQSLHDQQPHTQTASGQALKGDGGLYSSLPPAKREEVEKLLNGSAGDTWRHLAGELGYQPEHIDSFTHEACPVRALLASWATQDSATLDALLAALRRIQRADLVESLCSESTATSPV
Assay: competition: Pep5 at several concentrations against 1 uM GST-Rho GDI for immunoprecipitated p75

binding result: binds
B1: Pep5 (peptide)
peptide: CFFRGGFFNHNPRYC
notes: Chemically synthesized 15-residue peptide; also called peptide ligand to the p75 HD
